Measurements: publication PMC7430637 (2020)

How the values were obtained:
recombinant hUHRF1 [1] = biological target: T1, recombinant hUHRF1 (human, UniProt Q96T88-1 1-793); test: MST; + 100-fold molar excess PI5P
T1 chain: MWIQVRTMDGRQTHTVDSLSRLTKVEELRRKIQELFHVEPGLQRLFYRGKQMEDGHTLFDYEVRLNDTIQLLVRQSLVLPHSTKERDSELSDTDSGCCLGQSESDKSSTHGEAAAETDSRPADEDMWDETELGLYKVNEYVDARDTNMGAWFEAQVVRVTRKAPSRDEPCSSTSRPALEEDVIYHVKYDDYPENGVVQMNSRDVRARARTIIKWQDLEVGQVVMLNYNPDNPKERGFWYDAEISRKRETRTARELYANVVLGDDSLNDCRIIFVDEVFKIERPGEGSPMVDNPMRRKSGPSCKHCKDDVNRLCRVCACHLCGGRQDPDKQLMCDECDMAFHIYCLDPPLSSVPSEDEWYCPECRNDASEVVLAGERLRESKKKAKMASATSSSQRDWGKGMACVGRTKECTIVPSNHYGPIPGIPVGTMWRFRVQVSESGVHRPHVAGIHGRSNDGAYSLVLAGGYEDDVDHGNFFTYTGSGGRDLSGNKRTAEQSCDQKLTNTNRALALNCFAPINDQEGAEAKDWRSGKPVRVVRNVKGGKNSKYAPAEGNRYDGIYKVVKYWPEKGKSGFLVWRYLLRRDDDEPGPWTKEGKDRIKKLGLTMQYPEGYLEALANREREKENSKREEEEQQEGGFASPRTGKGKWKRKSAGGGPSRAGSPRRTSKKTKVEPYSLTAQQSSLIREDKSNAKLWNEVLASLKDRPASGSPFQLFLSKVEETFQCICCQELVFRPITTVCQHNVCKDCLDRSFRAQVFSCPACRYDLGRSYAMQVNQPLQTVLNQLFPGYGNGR

recombinant mUHRF1 V1 [2] = biological target: T2, recombinant mUHRF1 V1 (mouse, UniProt Q8VDF2 1-782); test: MST; + 100-fold molar excess PI5P
T2 chain: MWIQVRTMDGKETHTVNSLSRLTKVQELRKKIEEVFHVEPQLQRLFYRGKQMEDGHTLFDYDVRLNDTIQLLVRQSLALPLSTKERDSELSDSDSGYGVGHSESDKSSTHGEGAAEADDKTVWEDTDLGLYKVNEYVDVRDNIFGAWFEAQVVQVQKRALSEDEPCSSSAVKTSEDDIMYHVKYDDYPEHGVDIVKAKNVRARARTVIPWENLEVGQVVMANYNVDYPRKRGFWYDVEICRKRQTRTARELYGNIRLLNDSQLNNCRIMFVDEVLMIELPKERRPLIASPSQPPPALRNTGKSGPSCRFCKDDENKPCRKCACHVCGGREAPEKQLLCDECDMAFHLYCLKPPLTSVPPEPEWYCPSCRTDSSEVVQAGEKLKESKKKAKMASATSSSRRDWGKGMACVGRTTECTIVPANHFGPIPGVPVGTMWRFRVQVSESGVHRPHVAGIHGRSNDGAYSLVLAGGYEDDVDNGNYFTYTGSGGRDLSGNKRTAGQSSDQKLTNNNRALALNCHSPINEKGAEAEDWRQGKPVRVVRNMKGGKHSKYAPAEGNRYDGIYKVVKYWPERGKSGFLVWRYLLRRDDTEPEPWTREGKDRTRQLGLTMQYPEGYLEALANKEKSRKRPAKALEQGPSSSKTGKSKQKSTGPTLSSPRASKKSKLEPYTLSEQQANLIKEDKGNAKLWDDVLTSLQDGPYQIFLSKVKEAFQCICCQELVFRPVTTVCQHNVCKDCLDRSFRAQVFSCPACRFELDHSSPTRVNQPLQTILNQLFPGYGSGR

recombinant mUHRF1 V2 [3] = biological target: T3, recombinant mUHRF1 V2 (mouse); test: MST; + 100-fold molar excess PI5P
T3 chain: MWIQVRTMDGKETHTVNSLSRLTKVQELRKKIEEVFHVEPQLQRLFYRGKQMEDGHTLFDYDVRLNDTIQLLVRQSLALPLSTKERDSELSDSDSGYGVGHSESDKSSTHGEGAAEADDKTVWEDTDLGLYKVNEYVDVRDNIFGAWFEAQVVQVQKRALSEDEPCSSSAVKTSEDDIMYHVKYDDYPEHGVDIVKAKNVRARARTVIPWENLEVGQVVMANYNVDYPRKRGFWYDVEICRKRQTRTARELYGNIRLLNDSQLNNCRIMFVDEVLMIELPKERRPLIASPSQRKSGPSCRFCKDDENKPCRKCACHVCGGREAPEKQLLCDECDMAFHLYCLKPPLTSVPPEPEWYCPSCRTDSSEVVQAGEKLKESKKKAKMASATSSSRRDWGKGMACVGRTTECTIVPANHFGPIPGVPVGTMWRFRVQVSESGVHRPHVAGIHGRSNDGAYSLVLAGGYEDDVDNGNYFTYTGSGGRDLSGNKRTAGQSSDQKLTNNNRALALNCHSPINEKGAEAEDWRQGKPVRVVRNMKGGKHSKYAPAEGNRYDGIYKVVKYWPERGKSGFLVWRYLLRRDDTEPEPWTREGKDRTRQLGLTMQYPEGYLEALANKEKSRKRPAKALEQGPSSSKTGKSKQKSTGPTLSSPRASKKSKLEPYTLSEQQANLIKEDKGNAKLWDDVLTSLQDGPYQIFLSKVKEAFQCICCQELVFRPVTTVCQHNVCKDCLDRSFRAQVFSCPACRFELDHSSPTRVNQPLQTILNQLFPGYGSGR

recombinant hUHRF1 [4] = biological target: T1, recombinant hUHRF1; test: MST
recombinant mUHRF1 V1 [5] = biological target: T2, recombinant mUHRF1 V1; test: MST
recombinant mUHRF1 V2 [6] = biological target: T3, recombinant mUHRF1 V2; test: MST

ARTKQTARKSTGGKA (trimethyl-lysine at K9) [H3K9me3 peptide (titrated in MST)]
Kd (recombinant hUHRF1 [1]): 80 nM
Kd (recombinant mUHRF1 V1 [2]): 2600 nM
Kd (recombinant mUHRF1 V2 [3]): 8100 nM
Kd (recombinant hUHRF1 [4]): 1500 nM
Kd (recombinant mUHRF1 V1 [5]): 1400 nM
Kd (recombinant mUHRF1 V2 [6]): 4000 nM
